Biological target: the molecule itself
Assay: native gel or EMSA

B1: Rpp20, protein subunit of human nuclear RNase P (natural protein, UniProt O75817 1-140, looked up)
chain: MAENREPRGAVEAELDPVEYTLRKRLPSRLPRRPNDIYVNMKTDFKAQLARCQKLLDGGARGQNACSEIYIHGLGLAINRAINIALQLQAGSFGSLQVAANTSTVELVDELEPETDTREPLTRIRNNSAIHIRVFRVTPK
B1: binds.

Reference: publication PMC3141246 (Nucleic Acids Research, 2011)
